B1: fruit fly pantothenate kinase dPANK/FblD (Fumble D) (Drosophila melanogaster) (protein)
chain: MPWFGMDIGGTLTKLVYFEPKDITPDEQDREAGILRNIRRYLTKNSAYGKTGHRDTHLQMDNVEIRKRRGSLHFIRFQTTDMGNFLSLAKQKGMAELVTTVCATGGGAFKFEQDFRDQVNMKLAKFDELDTLIKGILFADLHNRTECYYYENARDILKSEKQQFNFSQPFPFILVNVGSGVSILAVYGPDNYKRISGTSLGGGTFLGLCCLLTGCTSFEEAIQLATKGDNRKVDKLVKDIYGGDYNRFGLPGDLVASSFGQMHLNDKRVSVSREDLANATLVTITNNIGSIARMCALNEKIDRVVFVGNFLRVNPISMKLLAYAMEFWSNGTMKGLFLEHEGYFGALGCLLQFNGELAAALNDGVEHSIHTESDSASEAAQTSSTADEPPEKAPTSKHSTR
B2: human pantothenate kinase hPANK3 (Homo sapiens) (protein)
chain: PWFGMDIGGTLVKLSYFEPIDITAEEEQEEVESLKSIRKYLTSNVAYGSTGIRDVHLELKDLTLFGRRGNLHFIRFPTQDLPTFIQMGRDKNFSTLQTVLCATGGGAYKFEKDFRTIGNLHLHKLDELDCLVKGLLYIDSVSFNGQAECYYFANASEPERCQKMPFNLDDPYPLLVVNIGSGVSILAVHSKDNYKRVTGTSLGGGTFLGLCSLLTGCESFEEALEMASKGDSTQADKLVRDIYGGDYERFGLPGWAVASSFGNMIYKEKRESVSKEDLARATLVTITNNIGSVARMCAVNEKINRVVFVGNFLRVNTLSMKLLAYALDYWSKGQLKALFLEHEGYFGAVGALLGLPNFS

Tests used:
Test in all cases: purified protein
Details in all cases: ATP; Mg2+
purified protein [1] = substrate: CC(C)(CO)[C@@H](O)C(=O)NCCC(=O)NCCS; format: biochemical, Drosophila melanogaster
purified protein [2] = substrate: CC(C)(CO)[C@@H](O)C(=O)NCCCC(=O)O; format: biochemical, Drosophila melanogaster
purified protein [3] = substrate: CC(C)(CO)[C@@H](O)C(=O)NCCC(=O)NCCS; format: biochemical, Homo sapiens
purified protein [4] = substrate: CC(C)(CO)[C@@H](O)C(=O)NCCCC(=O)O; format: biochemical, Homo sapiens

Protein	K0.5 (purified protein [1])	K0.5 (purified protein [2])	kcat (purified protein [2])	kcat/Km (purified protein [2])	K0.5 (purified protein [3])	kcat (purified protein [3])	kcat/Km (purified protein [3])	K0.5 (purified protein [4])	kcat (purified protein [4])	kcat/Km (purified protein [4])
B1	28.9 ± 13.0 µM	82.2 ± 12.4 µM	2.72 ± 0.5 s⁻¹	35600 ± 8400 M⁻¹ s⁻¹						
B2					8.05 ± 1.87 µM	0.41 ± 0.13 s⁻¹	57600 ± 24600 M⁻¹ s⁻¹	36.2 ± 2.1 µM	0.67 ± 0.02 s⁻¹	19500 ± 1600 M⁻¹ s⁻¹

From PMC8726015
